Measured values reported in paper PMC7773282.
Like-named read-outs stand apart in the source and are kept apart here.

Experiments:
[1] = biological target: human proton-activated chloride channel (PAC), reconstituted in MSP3D1 lipid nanodiscs (human) (UniProt Q9H813); test: cryo-EM structure
[2] = biological target: human proton-activated chloride channel (PAC), reconstituted in MSP3D1 lipid nanodiscs (human) (UniProt Q9H813); test: cryo-EM structure; remark: listed apart in the source

Substance “human proton-activated chloride channel (PAC), reconstituted in MSP3D1 lipid nanodiscs (from UniProt Q9H813 1-350) (natural protein)” has a stoichiometry N [1] of 3 and a stoichiometry N [2] of 3.
